For one assay, the target named is CD28 on Jurkat T cells (UniProt P10747). The assay can be described thus: cell-based or functional assay.
The next assay has as its target LFA-1 on Jurkat T cells (UniProt P20701). The assay can be described thus: cell-based or functional assay.

LFA-1 on Jurkat T cells, sequence (P20701 26-1170 limits assumed, chain 1 of 2): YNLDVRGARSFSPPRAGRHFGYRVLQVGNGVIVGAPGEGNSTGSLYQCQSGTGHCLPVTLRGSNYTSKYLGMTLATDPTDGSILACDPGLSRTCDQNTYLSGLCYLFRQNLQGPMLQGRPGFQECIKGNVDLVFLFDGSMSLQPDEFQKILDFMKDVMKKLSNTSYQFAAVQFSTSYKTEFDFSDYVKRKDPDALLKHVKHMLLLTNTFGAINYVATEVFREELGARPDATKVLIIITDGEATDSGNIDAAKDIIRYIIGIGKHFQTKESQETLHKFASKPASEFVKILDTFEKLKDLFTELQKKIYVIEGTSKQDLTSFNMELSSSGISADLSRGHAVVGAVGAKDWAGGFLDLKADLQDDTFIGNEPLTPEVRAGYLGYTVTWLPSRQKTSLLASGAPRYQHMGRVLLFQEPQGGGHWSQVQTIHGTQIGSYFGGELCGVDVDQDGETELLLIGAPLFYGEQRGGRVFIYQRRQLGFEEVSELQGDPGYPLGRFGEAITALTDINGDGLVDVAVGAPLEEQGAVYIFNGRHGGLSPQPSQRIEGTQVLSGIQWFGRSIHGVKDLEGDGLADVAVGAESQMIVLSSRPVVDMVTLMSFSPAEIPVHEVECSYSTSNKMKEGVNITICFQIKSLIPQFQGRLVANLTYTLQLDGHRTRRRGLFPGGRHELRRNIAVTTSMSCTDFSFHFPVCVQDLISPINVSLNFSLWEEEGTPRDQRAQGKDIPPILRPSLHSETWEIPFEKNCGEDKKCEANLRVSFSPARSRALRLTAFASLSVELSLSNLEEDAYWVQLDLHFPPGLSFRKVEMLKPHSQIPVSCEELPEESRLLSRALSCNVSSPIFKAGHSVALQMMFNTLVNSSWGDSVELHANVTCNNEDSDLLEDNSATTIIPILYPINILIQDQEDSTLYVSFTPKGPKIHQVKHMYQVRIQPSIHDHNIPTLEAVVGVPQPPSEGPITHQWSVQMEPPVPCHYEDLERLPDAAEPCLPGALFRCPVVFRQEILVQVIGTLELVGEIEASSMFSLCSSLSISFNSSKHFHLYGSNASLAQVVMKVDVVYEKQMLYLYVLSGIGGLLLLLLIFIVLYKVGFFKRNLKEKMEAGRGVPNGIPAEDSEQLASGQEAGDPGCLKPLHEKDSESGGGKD
LFA-1 on Jurkat T cells, sequence (P05107 23-769 limits assumed, chain 2 of 2, further chain): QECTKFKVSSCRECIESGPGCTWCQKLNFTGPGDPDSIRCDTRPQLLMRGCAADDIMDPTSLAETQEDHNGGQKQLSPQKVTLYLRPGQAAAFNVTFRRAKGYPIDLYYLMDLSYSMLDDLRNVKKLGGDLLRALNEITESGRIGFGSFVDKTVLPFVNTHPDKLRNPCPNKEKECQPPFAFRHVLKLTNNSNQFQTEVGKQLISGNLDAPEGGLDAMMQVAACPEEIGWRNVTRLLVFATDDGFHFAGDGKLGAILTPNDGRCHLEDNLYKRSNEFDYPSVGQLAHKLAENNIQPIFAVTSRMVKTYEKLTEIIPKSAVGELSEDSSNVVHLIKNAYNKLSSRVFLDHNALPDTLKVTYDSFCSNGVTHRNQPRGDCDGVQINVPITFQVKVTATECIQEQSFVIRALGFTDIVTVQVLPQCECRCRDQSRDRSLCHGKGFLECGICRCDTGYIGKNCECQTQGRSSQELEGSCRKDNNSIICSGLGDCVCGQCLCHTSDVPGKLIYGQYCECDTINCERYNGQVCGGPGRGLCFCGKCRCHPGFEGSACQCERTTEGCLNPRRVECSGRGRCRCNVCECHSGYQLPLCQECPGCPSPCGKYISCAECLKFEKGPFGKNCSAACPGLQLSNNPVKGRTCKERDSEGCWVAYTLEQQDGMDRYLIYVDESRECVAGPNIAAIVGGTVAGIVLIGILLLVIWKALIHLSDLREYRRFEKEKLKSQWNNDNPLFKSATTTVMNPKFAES

In turn, “GPI-tethered extracellular domain of human B7-1 expressed from pYBS101 (from UniProt P33681 35-242) (ligand)” came in with a Jurkat T cell adhesion to MembraneChip (fold against the control) with CD28 on Jurkat T cells of 4. In turn, “GPI-tethered extracellular domain of human ICAM-1 expressed from pYBS101 (from UniProt P05362 28-480) (ligand)” returned a Jurkat T cell adhesion to MembraneChip (fold against the control) with LFA-1 on Jurkat T cells of 3.
